Measurements taken from patent publication US20180362766A1, “Fluorogenic pH-Sensitive Dyes and Their Methods of Use” (Life Technologies Corporation, priority 2012, published 2018).

Tested on: A 431 cells
Test: Live cell internalization (endocytosis) of dye-labeled EGF, fluorescence imaging
Type: cell-based
Protocol: A 431 cells were grown in complete medium on 35 mm poly-D-lysine coated glass bottom culture dishes from MatTek. On the day of the assay, cells were rinsed once with LCIS +1% BSA (Live Cell imaging solution, Cat# A14291DJ) and placed at 37° C. Control dishes received LCIS; EGF pretreatment dishes received 10 μg/mL unlabeled EGF in LCIS. Cells were incubated at 37° C. for 30 minutes. Cells were then cooled to 4° C. on ice for 10 minutes. Compound (24)-labeled EGF was added to the dishes 1:10 at 5 μg/mL from a 50 μg/mL stock in LCIS. These dishes were incubated on ice for 30 minutes, then washed 2× with cold LCIS and allowed to warm to 37° C. for 60 minutes before imaging with standard TRITC and FITC filter sets on a DeltaVision Core microscope. […] All images were matched for gain and exposure times.

B1: Compound (24)-labeled EGF: epithelial growth factor (EGF) conjugated to Compound (24) STP ester, degree of substitution 1 (conjugate, UniProt P01133 23-1207, looked up)
Pro-epidermal growth factor: PQHWSCPEGTLAGNGNSTCVGPAPFLIFSHGNSIFRIDTEGTNYEQLVVDAGVSVIMDFHYNEKRIYWVDLERQLLQRVFLNGSRQERVCNIEKNVSGMAINWINEEVIWSNQQEGIITVTDMKGNNSHILLSALKYPANVAVDPVERFIFWSSEVAGSLYRADLDGVGVKALLETSEKITAVSLDVLDKRLFWIQYNREGSNSLICSCDYDGGSVHISKHPTQHNLFAMSLFGDRIFYSTWKMKTIWIANKHTGKDMVRINLHSSFVPLGELKVVHPLAQPKAEDDTWEPEQKLCKLRKGNCSSTVCGQDLQSHLCMCAEGYALSRDRKYCEDVNECAFWNHGCTLGCKNTPGSYYCTCPVGFVLLPDGKRCHQLVSCPRNVSECSHDCVLTSEGPLCFCPEGSVLERDGKTCSGCSSPDNGGCSQLCVPLSPVSWECDCFPGYDLQLDEKSCAASGPQPFLLFANSQDIRHMHFDGTDYGTLLSQQMGMVYALDHDPVENKIYFAHTALKWIERANMDGSQRERLIEEGVDVPEGLAVDWIGRRFYWTDRGKSLIGRSDLNGKRSKIITKENISQPRGIAVHPMAKRLFWTDTGINPRIESSSLQGLGRLVIASSDLIWPSGITIDFLTDKLYWCDAKQSVIEMANLDGSKRRRLTQNDVGHPFAVAVFEDYVWFSDWAMPSVMRVNKRTGKDRVRLQGSMLKPSSLVVVHPLAKPGADPCLYQNGGCEHICKKRLGTAWCSCREGFMKASDGKTCLALDGHQLLAGGEVDLKNQVTPLDILSKTRVSEDNITESQHMLVAEIMVSDQDDCAPVGCSMYARCISEGEDATCQCLKGFAGDGKLCSDIDECEMGVPVCPPASSKCINTEGGYVCRCSEGYQGDGIHCLDIDECQLGEHSCGENASCTNTEGGYTCMCAGRLSEPGLICPDSTPPPHLREDDHHYSVRNSDSECPLSHDGYCLHDGVCMYIEALDKYACNCVVGYIGERCQYRDLKWWELRHAGHGQQQKVIVVAVCVVVLVMLLLLSLWGAHYYRTQKLLSKNPKNPYEESSRDVRSRRPADTEDGMSSCPQPWFVVIKEHQDLKNGGQPVAGEDGQAADGSMQPTSWRQEPQLCGMGTEQGCWIPVSSDKGSCPQVMERSFHMPSYGTQTLEGGVEKPHSLLSANPLWQQRALDPPHQMELTQ
modifications: Pro-epidermal growth factor Compound (24) dye conjugate
fluorescent signal from dye-labeled EGF internalization (cells pretreated with 10 μg/mL unlabeled EGF): no signal | fluorescent signal from dye-labeled EGF internalization (untreated (control) plates, 5 μg/mL labeled EGF, 60 minutes at 37° C.): Specific signal
